From patent US20060270591A1 (published 2006) come the findings set out here.

To fix the notation:
T1: VP16 fused AR (Example 3) (human, UniProt P10275 36-920)
T1 construct: also called VP16-AR
T1 sequence: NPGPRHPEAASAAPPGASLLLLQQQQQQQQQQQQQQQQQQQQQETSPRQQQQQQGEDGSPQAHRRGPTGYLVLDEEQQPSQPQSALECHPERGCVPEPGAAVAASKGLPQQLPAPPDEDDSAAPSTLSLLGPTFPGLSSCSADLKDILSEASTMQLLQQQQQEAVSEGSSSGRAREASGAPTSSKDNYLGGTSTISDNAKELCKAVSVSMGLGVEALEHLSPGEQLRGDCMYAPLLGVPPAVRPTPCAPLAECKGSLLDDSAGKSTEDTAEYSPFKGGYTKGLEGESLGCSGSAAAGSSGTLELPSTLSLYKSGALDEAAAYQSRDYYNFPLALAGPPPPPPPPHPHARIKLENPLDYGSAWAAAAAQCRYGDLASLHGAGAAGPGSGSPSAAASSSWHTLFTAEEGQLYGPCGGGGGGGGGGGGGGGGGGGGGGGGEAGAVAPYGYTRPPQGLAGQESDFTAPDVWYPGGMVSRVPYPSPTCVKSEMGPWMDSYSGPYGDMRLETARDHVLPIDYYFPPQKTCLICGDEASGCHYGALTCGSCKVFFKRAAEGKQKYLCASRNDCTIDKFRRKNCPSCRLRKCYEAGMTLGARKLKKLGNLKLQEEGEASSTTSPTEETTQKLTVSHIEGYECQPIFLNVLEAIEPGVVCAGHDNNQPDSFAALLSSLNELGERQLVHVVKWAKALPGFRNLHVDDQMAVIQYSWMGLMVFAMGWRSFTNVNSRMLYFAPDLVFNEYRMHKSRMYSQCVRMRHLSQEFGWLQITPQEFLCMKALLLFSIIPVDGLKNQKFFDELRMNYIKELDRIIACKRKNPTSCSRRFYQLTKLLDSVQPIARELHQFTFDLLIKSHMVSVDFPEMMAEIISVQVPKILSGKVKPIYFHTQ

T2: VP16 fused near full-length AR (nAR, aa 36-918) (human, UniProt P10275 36-919)
T2 sequence: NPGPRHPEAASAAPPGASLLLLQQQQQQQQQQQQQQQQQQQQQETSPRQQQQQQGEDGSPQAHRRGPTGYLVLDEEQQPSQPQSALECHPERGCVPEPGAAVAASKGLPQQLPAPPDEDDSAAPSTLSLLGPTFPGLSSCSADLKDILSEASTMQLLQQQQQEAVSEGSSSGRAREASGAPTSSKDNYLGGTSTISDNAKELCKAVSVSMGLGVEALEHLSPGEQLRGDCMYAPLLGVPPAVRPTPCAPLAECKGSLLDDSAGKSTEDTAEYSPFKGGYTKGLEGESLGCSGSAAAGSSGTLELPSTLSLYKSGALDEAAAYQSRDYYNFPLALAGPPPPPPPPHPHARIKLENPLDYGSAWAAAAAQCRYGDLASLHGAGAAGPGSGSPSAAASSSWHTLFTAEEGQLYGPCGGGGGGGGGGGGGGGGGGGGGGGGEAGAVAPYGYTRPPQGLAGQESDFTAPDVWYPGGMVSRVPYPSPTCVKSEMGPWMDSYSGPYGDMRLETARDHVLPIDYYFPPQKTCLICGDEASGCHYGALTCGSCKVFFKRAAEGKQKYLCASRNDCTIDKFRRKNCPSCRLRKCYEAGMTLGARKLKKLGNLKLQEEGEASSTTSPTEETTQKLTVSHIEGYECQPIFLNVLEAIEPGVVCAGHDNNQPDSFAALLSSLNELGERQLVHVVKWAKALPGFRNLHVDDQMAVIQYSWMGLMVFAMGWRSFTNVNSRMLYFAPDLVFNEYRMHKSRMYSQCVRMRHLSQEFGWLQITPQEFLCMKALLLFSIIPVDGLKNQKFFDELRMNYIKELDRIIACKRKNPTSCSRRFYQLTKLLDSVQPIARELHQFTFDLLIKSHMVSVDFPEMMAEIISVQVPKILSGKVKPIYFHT

B1: GALAD70-C: GAL4AD fused ARA70 aa 383-614 (other, not shown: large carriers)
chain: SMVTEDWLVQNHQDPCKVEEVCRANEPCTSFAECVCDENCEKEALYKWLLKKEGKDKNGMPVEPKPEPEKHKDSLNMWLCPRKEVIEQTKAPKAMTPSRIADSFQVIKNSPLSEWLIRPPYKEGSPKEVPGTEDRAGKQKFKSPMNTSWCSFNTADWVLPGKKMGNLSQLSSGEDKWLLRKKAQEVLLNSPLQEEHNFPPDHYGLPAVCDLFACMQLKVDKEKWLYRTPLQM
notes: also called ARA70-C (aa 383-614)
B2: GAL4 DBD fused ARA70-N1 (aa 1-175) (other)
chain: MKLLSSIEQACDICRLKKLKCSKEKPKCAKCLKNNWECRYSPKTKRSPLTRAHLTEVESRLERLEQLFLLIFPREDLDMILKMDSLQDIKALLTGLFVQDNVNKDAVTDRLASVETDMPLTLRQHRISATSSSEESSNKGQRQLTVSMNTFQDQSGSSSNREPLLRCSDARRDLELAIGGVLRAEQQIKDNLREVKAQIHSCISRHLECLRSREVWLYEQVDLIYQLKEETLQQQAQQLYSLLGQFNCLTHQLECTQNKDLANQVSVCLERLGSLTLKPEDSTVLLFEADTITLRQTITTFGSLKTIQIPEHLMAHASSANI
notes: Mammalian two-hybrid
B3: GAL4 DBD fused Rb fragment (aa 371-928) (other)
chain: MKLLSSIEQACDICRLKKLKCSKEKPKCAKCLKNNWECRYSPKTKRSPLTRAHLTEVESRLERLEQLFLLIFPREDLDMILKMDSLQDIKALLTGLFVQDNVNKDAVTDRLASVETDMPLTLRQHRISATSSSEESSNKGQRQLTVSPHTPVRTVMNTIQQLMMILNSASDQPSENLISYFNNCTVNPKESILKRVKDIGYIFKEKFAKAVGQGCVEIGSQRYKLGVRLYYRVMESMLKSEEERLSIQNFSKLLNDNIFHMSLLACALEVVMATYSRSTSQNLDSGTDLSFPWILNVLNLKAFDFYKVIESFIKAEGNLTREMIKHLERCEHRIMESLAWLSDSPLFDLIKQSKDREGPTDHLESACPLNLPLQNNHTAADMYLSPVRSPKKKGSTTRVNSTANAETQATSAFQTQKPLKSTSLSLFYKKVYRLAYLRLNTLCERLLSEHPELEHIIWTLFQHTLQNEYELMRDRHLDQIMMCSMYGICKVKNIDLKFKIIVTAYKDLPHAVQETFKRVLIKEEEYDSIIVFYNSVFMQRLKTNILQYASTRPPTLSPIPHIPRSPYKFPSSPLRIPGGNIYISPLKSPYKISEGLPTPTKMTPRSRILVSIGESFGTSEKFQKINQMVCNSDRVLKRSAEGSNPPKPLKKLRFDIEGSDEADGSKHLPGESKFQQKLAEMTSTRTRMQKQKMNDSMDTSNKEEK
B4: VP16 fused AR-LBD (aa 590-918) (receptor)
chain: KQKYLCASRNDCTIDKFRRKNCPSCRLRKCYEAGMTLGARKLKKLGNLKLQEEGEASSTTSPTEETTQKLTVSHIEGYECQPIFLNVLEAIEPGVVCAGHDNNQPDSFAALLSSLNELGERQLVHVVKWAKALPGFRNLHVDDQMAVIQYSWMGLMVFAMGWRSFTNVNSRMLYFAPDLVFNEYRMHKSRMYSQCVRMRHLSQEFGWLQITPQEFLCMKALLLFSIIPVDGLKNQKFFDELRMNYIKELDRIIACKRKNPTSCSRRFYQLTKLLDSVQPIARELHQFTFDLLIKSHMVSVDFPEMMAEIISVQVPKILSGKVKPIYFHT
notes: also called pCMX-VP16-AR
B5: GALAD70-N: GAL4AD fused ARA70 aa 1-401 (other, not shown: large carriers)
chain: MNTFQDQSGSSSNREPLLRCSDARRDLELAIGGVLRAEQQIKDNLREVKAQIHSCISRHLECLRSREVWLYEQVDLIYQLKEETLQQQAQQLYSLLGQFNCLTHQLECTQNKDLANQVSVCLERLGSLTLKPEDSTVLLFEADTITLRQTITTFGSLKTIQIPEHLMAHASSANIGPFLEKRGCISMPEQKSASGIVAVPFSEWLLGSKPASGYQAPYIPSTDPQDWLTQKQTLENSQTSSRACNFFNNVGGNLKGLENWLLKSEKSSYQKCNSHSTTSSFSIEMEKVGDQELPDQDEMDLSDWLVTPQESHKLRKPENGSRETSEKFKLLFQSYNVNDWLVKTDSCTNCQGNQPKGVEIENLGNLKCLNDHLEAKKPLSTPSMVTEDWLVQNHQDPCKVE
notes: the legend says GAL4AD fusions; also called ARA70N peptide (aa 1 to 401); ARA70-N
B6: GAL4 DBD fused ARA70-C (aa 383-614) (other)
chain: MKLLSSIEQACDICRLKKLKCSKEKPKCAKCLKNNWECRYSPKTKRSPLTRAHLTEVESRLERLEQLFLLIFPREDLDMILKMDSLQDIKALLTGLFVQDNVNKDAVTDRLASVETDMPLTLRQHRISATSSSEESSNKGQRQLTVSSMVTEDWLVQNHQDPCKVEEVCRANEPCTSFAECVCDENCEKEALYKWLLKKEGKDKNGMPVEPKPEPEKHKDSLNMWLCPRKEVIEQTKAPKAMTPSRIADSFQVIKNSPLSEWLIRPPYKEGSPKEVPGTEDRAGKQKFKSPMNTSWCSFNTADWVLPGKKMGNLSQLSSGEDKWLLRKKAQEVLLNSPLQEEHNFPPDHYGLPAVCDLFACMQLKVDKEKWLYRTPLQM
notes: Mammalian two-hybrid
B7: ARA70 (mammalian two-hybrid construct of Example 1) (other)
chain: MNTFQDQSGSSSNREPLLRCSDARRDLELAIGGVLRAEQQIKDNLREVKAQIHSCISRHLECLRSREVWLYEQVDLIYQLKEETLQQQAQQLYSLLGQFNCLTHQLECTQNKDLANQVSVCLERLGSLTLKPEDSTVLLFEADTITLRQTITTFGSLKTIQIPEHLMAHASSANIGPFLEKRGCISMPEQKSASGIVAVPFSEWLLGSKPASGYQAPYIPSTDPQDWLTQKQTLENSQTSSRACNFFNNVGGNLKGLENWLLKSEKSSYQKCNSHSTTSSFSIEMEKVGDQELPDQDEMDLSDWLVTPQESHKLRKPENGSRETSEKFKLLFQSYNVNDWLVKTDSCTNCQGNQPKGVEIENLGNLKCLNDHLEAKKPLSTPSMVTEDWLVQNHQDPCKVEEVCRANEPCTSFAECVCDENCEKEALYKWLLKKEGKDKNGMPVEPKPEPEKHKDSLNMWLCPRKEVIEQTKAPKAMTPSRIADSFQVIKNSPLSEWLIRPPYKEGSPKEVPGTEDRAGKQKFKSPMNTSWCSFNTADWVLPGKKMGNLSQLSSGEDKWLLRKKAQEVLLNSPLQEEHNFPPDHYGLPAVCDLFACMQLKVDKEKWLYRTPLQM
notes: pGAL4-VP16 was used to construct a fusion of ARA70; limits and fusion partner not clearly stated
B8: GALAD70-N1: GAL4AD fused ARA70 aa 1-175 (other, not shown: large carriers)
chain: MNTFQDQSGSSSNREPLLRCSDARRDLELAIGGVLRAEQQIKDNLREVKAQIHSCISRHLECLRSREVWLYEQVDLIYQLKEETLQQQAQQLYSLLGQFNCLTHQLECTQNKDLANQVSVCLERLGSLTLKPEDSTVLLFEADTITLRQTITTFGSLKTIQIPEHLMAHASSANI
notes: also called ARA70-N1
B9: GALAD70-N2: GAL4AD fused ARA70 aa 176-401 (other, not shown: large carriers)
chain: GPFLEKRGCISMPEQKSASGIVAVPFSEWLLGSKPASGYQAPYIPSTDPQDWLTQKQTLENSQTSSRACNFFNNVGGNLKGLENWLLKSEKSSYQKCNSHSTTSSFSIEMEKVGDQELPDQDEMDLSDWLVTPQESHKLRKPENGSRETSEKFKLLFQSYNVNDWLVKTDSCTNCQGNQPKGVEIENLGNLKCLNDHLEAKKPLSTPSMVTEDWLVQNHQDPCKVE
notes: also called ARA70-N2 peptide (aa 176 to 401); ARA70-N2

Experiment [1] has as its target T3, GAL4 DBD fused with C-terminal fragment (aa 595-918) of wild-type AR (human, UniProt P04386 1-147 (Saccharomyces cerevisiae entry)).
T3 construct: range 1-147; also called pAS2-AR; pAS2-wtAR
Description: yeast two-hybrid, 10 nM DHT.
Description: (§1) (B) The domains of ARA70 responsible for AR interaction by yeast two-hybrid assay. The interaction of different domains/motifs of ARA70 with wtAR assayed by plate nutritional selection in the yeast Y190 strain. […] Data were reproducible in two independent transformations.

Experiment [2] addresses T1, VP16 fused AR (Example 3). The experiment is described as follows: mammalian two-hybrid, DU145, pG5-Luc.
The target in experiment [3] is T2, VP16 fused near full-length AR (nAR, aa …). Description: cell-based or functional assay.
In experiment [4] the target is B3. The experiment is described as follows: mammalian two-hybrid, DU145, CAT.
Experiment [5] concerns the target T3, GAL4 DBD fused with C-terminal fragment …. Description: yeast two-hybrid, plate nutritional selection.
Description: as §1
In experiment [6] the target is pGAL0-AR: GAL4 DBD (a.a. 1-147) fused to hinge and LBD of wtAR (human, UniProt P04386 1-147 (Saccharomyces cerevisiae entry)). The experiment is described as follows: cell-based or functional assay.

With QQLYSLLGQF (peptide, not shown: large carriers, also called ARA70 LXXLL (aa 90 to 99)) [GALAD70-LXXLL: GAL4AD fused ARA70 aa 90-99], in experiment [1], the binding result is on record as “no binding”.
In the case of B1, in experiment [1], the binding result was “no binding”.
In the case of B2, the binding result in experiment [2] is given as “no binding”.
As to B3, the “CAT activity, mammalian two-hybrid system, DU145 cells” value in experiment [3] was found to be 3 fold.
Consider B4, for which, in experiment [4], the binding result was “no binding”.
For the molecule B5, the binding result in experiment [5] is “binds”.
On to B6, for which, in experiment [2], the binding result is reported as “no binding”.
With B7, the binding result in experiment [4] is on record as “no binding”. Moreover, in experiment [6], the “CAT activity, mammalian two-hybrid assay” value came to 12 fold.
As for B8, the binding result in experiment [1] is on record as “no binding”.
Turning to B9, the binding result in experiment [5] is reported as “binds”.
